Results reported in article PMC11125907, “A Portable Readout System for Biomarker Detection with Aptamer-Modified CMOS ISFET Array”.

Biological target: cardiac troponin I (cTnI) (human, UniProt P19429 2-210)
Assay: ISFET aptasensor; 1 mM Mg2+; AC mode 2.4 V, 10 kHz 0.1 Vp-p; LoD 3.27 ng/mL, linear range 3.27-625 ng/mL (no Kd); 10 mM Tris-HCl pH 7.7, 8 mM NaCl, 1 mM MgCl2; temperature not stated
Details: protein: recombinant

Chain of cardiac troponin I (cTnI) (P19429 2-210): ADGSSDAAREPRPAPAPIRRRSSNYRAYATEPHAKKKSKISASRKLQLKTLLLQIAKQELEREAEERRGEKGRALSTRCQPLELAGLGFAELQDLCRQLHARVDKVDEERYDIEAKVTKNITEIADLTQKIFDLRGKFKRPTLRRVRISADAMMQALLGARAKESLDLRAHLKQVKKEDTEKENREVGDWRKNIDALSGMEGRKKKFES

Binder: CGCATGCCAAACGTTGCCTCATAGTTCCCTCCCCGTGTCC (ssDNA, 5'-SH (thiol)) [Tro6]
- binding result: binds
